The RNAGym collection of RNA variant scans (doi:10.1093/nar/gkz1192)

B1: CPEB3 Ribozyme (parent)
chain: UAACAGGGGGCCACAGCAGAAGCGUUCACGUCGCAGCCCCUGUCAGAUUCUGGUGAAUCUGCGAAUUCUGCUGUAUAUCUC

Variants of: B1
Assay: self-cleavage, relative activity (ratio to wild type); higher = more cleavage; in vitro, sequencing
Procedure, shortened: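 CPEB3 self-cleaving ribozyme mutant libraries were made by rounds of error-prone PCR, barcoded, and transcribed in vitro with T7 RNA polymerase for 5 hours at 37°C. Cleavage occurred during transcription and a 15 min DNase I step before EDTA stop. RNAs were reverse transcribed with template switching and Illumina-sequenced, with DNA sequencing mapping barcodes to variants. Relative activity is the variant's cleaved/total read fraction divided by wild type's (minimum 5 reads), averaged across three batches.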

Variant	self-cleavage
C12A A57G	1.06
C12G C27U	0.18
C12G C27A	0.09
C11U U80C	0.45
C11U U80A	0.31
C12G C38A	0.36
C11U U60C	0.14
C12G A18G	0.17
C12G A18U	0.35
C12A U74G	1.28
C12A U25C	0.42
C12U A65U	0.42
C12U A65G	1.07
C11G A13G	0.32
C11G A13U	0.75
C11U U25A	0.38
C11U U25C	0.22
C11G A57U	0.39
C11G A57G	0.43
C11G C71U	0.16
C12G A64U	0.13
C11G C32A	0.31
C11G C32U	0.16
C12U A57G	1.26

Variant	self-cleavage
C12G G52A	0.49
C11A U66C	0.12
C11G A77G	0.64
C11U A47G	0.36
C11U A47U	0.31
C11G A15U	0.39
C11G A15G	0.58
C11G A15C	0.62
C11G G70U	0.23
C11G G70A	0.26
C12U A77G	1.19
C12U A77C	1.03
C11U U41A	0.3
C11U U41C	0.51
C11A U72A	0.15
C11A U72C	0.52
C12A A15G	1.19
C12A A15C	1.17
C11U U43C	0.35
C11U U43A	0.68
C11U G53C	0.4
C11U G53U	0.43
C12A G46U	0.38
C12G U66C	0.24

Variant	self-cleavage
C12U C17U	1.13
C11G U51A	0.31
C11G U51C	0.41
C12A C40U	0.69
C12A C40A	0.3
C11G G19C	0.48
C11U A65G	0.2
C11U A65U	0.33
C11G C17U	0.19
C11U G61C	0.11
C12A U51A	1.06
C11G G36U	0.09
C11U A35G	1.27
C11U A35U	0.33
C11A U74C	0.6
C12U A18U	0.62
C12U A18G	0.95
C11U U72G	0.37
C11U U72A	0.42
C11U U72C	0.64
C11U C12U	0.56
C11G U41C	0.67
C11G U41A	0.25
C11U C40U	0.27

Variant	self-cleavage
C11U U54C	0.43
C11U U54A	0.45
C11G A35U	0.18
C11G A35G	0.56
C11G A35C	0.33
C11U U69A	0.24
C11A U67C	0.09
C11A U67A	0.17
C12U A15U	1.23
C12U A15G	0.86
C11U A13U	0.49
C11U A13C	0.09
C11U A13G	0.43
C11G U66A	0.49
C11G U66C	0.21
C11U A45G	0.2
C11U A45U	0.27
C11U C68A	0.11
C11G U48C	0.11
C12U A13C	1.16
C12U A13G	0.74
C12U A13U	1.15
C12A C17G	0.16
C11G U60G	0.21

Variant	self-cleavage
C11G U60A	0.12
C11G U60C	0.29
C12A G55C	0.78
C12A U41G	0.36
C12A U41C	0.99
C11G G55A	0.14
C11G G55U	0.55
C12A A65C	0.32
C12A A65G	0.44
C12A A35U	1.27
C12A A35G	0.9
C12A G30U	0.26
C12A A47G	1.17
C12A A18U	0.48
C11A U80C	0.5
C11G U58A	0.39
C11U G33U	0.19
C11U G33A	0.42
C11U G33C	0.14
C12A U69A	0.7
C12A U69C	0.72
C11U A56G	0.32
C11U A56U	0.33
C11U G24A	0.22

Variant	self-cleavage
C11U A20U	0.28
C11U A20G	0.43
C11U C50U	0.4
C11G A56U	0.28
C11G A56C	0.38
C12A U54C	1.12
C12A U54A	1.1
C12A U80C	1.23
C12G U25C	0.14
C12U A21G	0.86
C12U A21U	1
C12U C14U	1.25
C12G G24A	0.19
C12U C27A	0.46
C12A C79A	1.28
C11U U51G	0.35
C11U U51A	0.42
C11U U51C	0.44
C11U G19U	0.07
C12U A35U	1.06
C12U A35G	1.15
C12U A35C	0.85
C12G A13C	0.72
C12G A13U	1.14

Variant	self-cleavage
C12G A13G	0.71
C11G U31A	0.33
C11G U31C	0.22
C11G U31G	0.27
C11G G46U	0.1
C12G C40A	0.11
C11U A75U	0.43
C11U A75G	0.32
C11G U25C	0.22
C11G U25A	0.1
C12A A45U	0.49
C12A A45G	1.04
C12A U60C	0.3
C12G A57G	0.41
C11A U58C	0.43
C11G U67G	0.2
C11G U67A	0.27
C11G U67C	0.16
C11G A75U	0.78
C11G A75G	0.41
C11U U66C	0.2
C12G U43C	0.38
C11G A20G	0.56
